Experimental data: PMC8897509 (Nature Communications, 2022)
Where a chain is given by its changes, count along the chain named. Values belong to the binder of their own block, whether it stands above or below them.

Legend:
ubiquitin [1] = biological target: T1, ubiquitin (UniProt P0CG48 1-76); assay: pull-down; GST-Ark2C proteins immobilised on Glutathione Sepharose mixed with ubiquitin; PBS pH 7.4, 0.2% Tween 20, 2 mM DTT, 4 °C, 30 min; washed four times with PBS; details: both partners purified
T1 construct: ubiquitin, the mature protein; cloned into pET-3a, expressed untagged; Some pull-downs used a Cy3-labelled variant with an added N-terminal Met-Cys; also called Ub^R; Ub^D; source: E. coli BL21 (DE3), purified (HiTrap SP HP, Superdex 75)

ubiquitin [2] = biological target: T1, ubiquitin; assay: crystal structure; UbArk2C fusion alone, 2.5 Å, PDB 7R70; crystals from 1.6 M Na3Citrate, 16 °C; two copies in the asymmetric unit; details: both partners purified

binding result (ubiquitin [1]): binds
B1: GST-Ark2C-ΔAcidic (Δ283-291) (domain or fragment, human, UniProt Q6ZSG1 255-346, looked up)
chain: GAVQNTIERFTFPHKYKKRRPQDGKGKKEKCTICLSMLEDGEDVRRLPCMHLFHQLCVDQWLAMSKKCPICRVDIETQLGADS
notes: Ark2C (RNF165), human, RING domain, residues 255-346, without most of the acidic residues of the β3-RING loop; source: E. coli BL21 (DE3), immobilised on Glutathione Sepharose resin; not shown: GST, N-terminal, kept

binding result (ubiquitin [2]): binds
B2: Ark2C RING domain (residues 255-346), as it stands in the UbArk2C fusion (domain or fragment, human, UniProt Q6ZSG1 255-346, looked up)
chain: GAVQNTIERFTFPHKYKKRRPQDGKGKKDEGEESDTDEKCTICLSMLEDGEDVRRLPCMHLFHQLCVDQWLAMSKKCPICRVDIETQLGADS
notes: Ark2C (RNF165), human, RING domain, residues 255-346; Used for the pair rows of the Ark2C part of the fusion m2 (structures and cross-links); also called RNF165; source: E. coli BL21 (DE3), purified, as part of the UbArk2C fusion

binding result (ubiquitin [1]): binds
B3: GST-Ark2C^KK/AA (Lys271 and Lys272 to alanine) (domain or fragment, human, UniProt Q6ZSG1 255-346, looked up)
chain: B2 chain with K17A, K18A
notes: Ark2C (RNF165), human, RING domain, residues 255-346; The functional row uses this molecule, although the activity assays were done with the protein after cleavage of GST; source: E. coli BL21 (DE3), immobilised on Glutathione Sepharose resin; not shown: GST, N-terminal, kept
